T1: Recombinant human CXCL16 (rhCXCL16) protein (human, UniProt Q9H2A7 30-118, limits assumed)
T1 construct: Bought recombinant protein (976-CX, R&D systems); also called CXCL16 antigen; 976-CX (R&D systems)
T1 sequence: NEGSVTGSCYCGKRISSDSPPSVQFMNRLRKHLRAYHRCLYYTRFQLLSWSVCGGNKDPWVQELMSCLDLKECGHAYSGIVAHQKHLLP

B1: HC1LC5 (antibody, human IgG1, kappa, V domains shown)
VH: QVQLVESGGGVVQPGGSLRLSCAASGFTFSNAVMNWVRQAPGKGLEWVARIRTKPNNYATFYADSVKGRFTFSRDNSKTMLYLQMNSLRAEDTAVYYCTAWTTEGIYWGQGTLVTVSS
VL: DIVMTQSPSSLAVSAGERATINCKSSQSLLYSGNQKNYLAWYQQKPGQSPKLLIYWASTRQSGVPDRFIGSGSGTDFTLTISSLQAEDVAIYYCQQYYDTPWTFGGGTKLELKR
notes: Humanized variant; human IgG1 / kappa constant domains
B2: HC3LC2 (antibody, human IgG1, kappa, V domains shown)
VH: EVQLVESGGGLVQPGGSLKLSCAASGFTFSNAVMNWVRQAPGKGLEWVGRIRTKPNNYATFYADSVKGRFTFSRDDSKNTAYLQMNILKTEDTAMYYCTAWTTEGIYWGQGTTVTVSS
VL: B1 VL with A15L, R18T, S49P, I69T, S73A, L84V, V89L, L110V, L112I
notes: as for B1
B3: HC1LC1 (antibody, human IgG1, kappa, V domains shown)
VH: B1 VH
VL: B1 VL with S9D, R18T, A19V, I69S, L84V, I91V, L110V, L112I
notes: as for B1
B4: HC5LC4 (antibody, human IgG1, kappa, V domains shown)
VH: B2 VH with P41S, G49A, I87S, T113L
VL: DIQMTQSPSSLSASVGDRVTITCKSSQSLLYSGNQKNYLAWYQQKPGQSPKLLIYWASTRQSGVPSRFSGSGSGTDFTLTISSLQPEDLAIYYCQQYYDTPWTFGGGTKLELKR
notes: as for B1
B5: HC2LC5 (antibody, human IgG1, kappa, V domains shown)
VH: B2 VH with E1A, L20I, P41S, F72I, I87S, T113L
VL: B1 VL
notes: as for B1
B6: HC3LC5 (antibody, human IgG1, kappa, V domains shown)
VH: B2 VH
VL: B1 VL
notes: as for B1
B7: HC4LC5 (antibody, human IgG1, kappa, V domains shown)
VH: B2 VH with Q13K, K19R, G49A, A81L, I87S, M95V
VL: B1 VL
notes: as for B1
B8: HC3LC1 (antibody, human IgG1, kappa, V domains shown)
VH: B2 VH
VL: B1 VL with S9D, R18T, A19V, I69S, L84V, I91V, L110V, L112I
notes: as for B1
B9: HC2LC1 (antibody, human IgG1, kappa, V domains shown)
VH: B2 VH with E1A, L20I, P41S, F72I, I87S, T113L
VL: B1 VL with S9D, R18T, A19V, I69S, L84V, I91V, L110V, L112I
notes: as for B1
B10: HC3LC3 (antibody, human IgG1, kappa, V domains shown)
VH: B2 VH
VL: B4 VL with S66D, P86A, L89F, I91T, L110V, L112I
notes: as for B1
B11: HC3LC4 (antibody, human IgG1, kappa, V domains shown)
VH: B2 VH
VL: B4 VL
notes: as for B1

Numbering of substitutions follows the chain as printed.

This experiment addresses T1, Recombinant human CXCL16 (rhCXCL16) …. Description: BLI (ForteBio), antibody captured on biosensor, rhCXCL16 in solution. Here is the method: The binding characteristics of 25 CXCL16 antibodies were analyzed using the bio-light interferometry (ForteBio). All antibodies were diluted in freshly prepared running buffer. Antibodies were immobilized onto the surface of a series of biosensors using the capture methods at 0.3 μg/mL. Recombinant human CXCL16 (rhCXCL16) protein (100 nM) was passed over the surface to generate a binding response for 10 minutes. Binding data for the antibody and antigen interactions were collected at 25° C. on the biosensors. Then, the running buffer was passed for 10 minutes to dissociate them. The association constant (kₐ) and the dissociation constant (kₐ) were observed, and the equilibrium binding constant (KD) was calculated. […] R2: The value indicating how well the fit and experimental data correlate; X²: The measure of error between the experimental data and fitted line.
(In general: BLI is a label-free optical method that tracks binding on a fibre tip over time.)
As to B1, the binding result is “no binding (tested: 100 nM rhCXCL16)”.
Next, B2: “no binding (tested: 100 nM rhCXCL16)”; B3: “no binding (tested: 100 nM rhCXCL16)”; B4: “no binding (tested: 100 nM rhCXCL16)”.
Next, B5: “no binding (tested: 100 nM rhCXCL16)”; B6: “no binding (tested: 100 nM rhCXCL16)”.
For B7, the binding result is reported as “no binding (tested: 100 nM rhCXCL16)”.
Next, B8: “no binding (tested: 100 nM rhCXCL16)”.
Next, B9: “no binding (tested: 100 nM rhCXCL16)”; B10: “no binding (tested: 100 nM rhCXCL16)”; B11: “no binding (tested: 100 nM rhCXCL16)”.
